{"source": "paper PMC11713712", "about": "“PFTAIRE peptide degrading cyclin Y and ameliorating cognitive deficits in mouse models of Alzheimer’s Disease” (Alzheimer's & Dementia, 2025)", "key": {"[1]": {"from_the_text": "Abstract Background Cyclin Y (CCNY) is a member of cyclin protein family inhibiting long‐term synaptic plasticity, which is related to the learning and memory function in neuronal system. Recently, CCNY has been reported to associate with the cognitive deficits in Alzheimer’s disease (AD). […] This peptide is derived from the domain of cyclin‐dependent kinase 14, a kinase degrading CCNY protein, and this domain is essential for the binding to CCNY. Utilizing solid‐phase peptide synthesis, PFTAIRE peptide was produced. […] We intravenously injected PFTAIRE peptide to AD mouse models and performed behavior tests."}, "[2]": {"biological_target": "T1, CCNY protein (Homo sapiens, UniProt Q8ND76)", "T1 sequence (Q8ND76 whole entry, species assumed)": "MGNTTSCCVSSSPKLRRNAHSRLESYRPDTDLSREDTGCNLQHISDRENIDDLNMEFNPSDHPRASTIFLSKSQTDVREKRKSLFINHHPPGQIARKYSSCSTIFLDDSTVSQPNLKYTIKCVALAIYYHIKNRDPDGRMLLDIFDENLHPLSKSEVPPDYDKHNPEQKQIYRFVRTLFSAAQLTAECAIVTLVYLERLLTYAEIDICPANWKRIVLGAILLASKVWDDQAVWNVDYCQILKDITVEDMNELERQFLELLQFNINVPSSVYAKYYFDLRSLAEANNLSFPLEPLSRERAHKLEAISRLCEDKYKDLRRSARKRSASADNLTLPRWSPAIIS", "experiment": "Binding of PFTAIRE peptide to CCNY protein in in vitro studies", "from_the_text": "(§1) Utilizing solid‐phase peptide synthesis, PFTAIRE peptide was produced."}, "[3]": {"test_system": "AD mouse models", "experiment": "Behavior tests in AD mouse models after intravenous injection", "type": "in vivo", "settings": "intravenously injected", "from_the_text": "as §1"}, "[4]": {"biological_target": "T1, CCNY protein", "experiment": "CCNY protein level", "from_the_text": "as §1"}}}
{"substance": "PFTAIRE peptide: Peptide derived from the domain of cyclin‐dependent kinase 14 essential for binding to CCNY; produced by solid‐phase peptide synthesis", "values": [{"measurement": "plasma stability", "setting": "[1]", "result": "confirmed the plasma and liver microsomal stability"}, {"measurement": "liver microsomal stability", "setting": "[1]; liver microsomes", "result": "confirmed the plasma and liver microsomal stability"}, {"measurement": "binding to CCNY protein", "setting": "[2]", "result": "binds to CCNY protein"}, {"measurement": "memory impairments in behavior tests", "setting": "[3]", "result": "prevents memory impairments"}, {"measurement": "CCNY protein level", "setting": "[4]", "result": "diminish CCNY protein level"}]}
